# Laboratory results taken from US20260193342A1 (ZOETIS SERVICES, published 2026).
# Residue numbers refer to the chain shown, from its start. Numbers in names are those of the source.
# B1: mAb2 of Tables 1-3, caninized anti-NGF antibody, canine IgGB (65), N434H (antibody, part only; not given: Anti-NGF heavy and light variable domains, part only)
# heavy, part: ASTTAPSVFPLAPSCGSTSGSTVALACLVSGYFPEPVTVSWNSGSLTSGVHTFPSVLQSSGLYSLSSMVTVPSSRWPSETFTCNVAHPASKTKVDKPVPKRENGRVPRPPDCPKCPAPEMLGGPSVFIFPPKPKDTLLIARTPEVTCVVVDLDPEDPEVQISWFVDGKQMQTAKTQPREEQFNGTYRVVSVLPIGHQDWLKGKQFTCKVNNKALPSPIERTISKARGQAHQPSVYVLPPSREELSKNTVSLTCLIKDFFPPDIDVEWQSNGQQEPESKYRTTPPQLDEDGSYFLYSKLSVDKSRWQRGDTFICAVMHEALHHHYTQESLSHSPGK
# B2: mAb1, caninized anti-IL31 antibody 34D03, canine IgGB (65), WT (antibody)
# heavy: EVQLVESGGDLVKPGGSLRLSCVASGFTFSNYGMSWVRQAPGKGLQWVATISYGGSYTYYPDNIKGRFTISRDNAKNTLYLQMNSLRAEDTAMYYCVRGYGYDTMDYWGQGTLVTVSSASTTAPSVFPLAPSCGSTSGSTVALACLVSGYFPEPVTVSWNSGSLTSGVHTFPSVLQSSGLYSLSSMVTVPSSRWPSETFTCNVAHPASKTKVDKPVPKRENGRVPRPPDCPKCPAPEMLGGPSVFIFPPKPKDTLLIARTPEVTCVVVDLDPEDPEVQISWFVDGKQMQTAKTQPREEQFNGTYRVVSVLPIGHQDWLKGKQFTCKVNNKALPSPIERTISKARGQAHQPSVYVLPPSREELSKNTVSLTCLIKDFFPPDIDVEWQSNGQQEPESKYRTTPPQLDEDGSYFLYSKLSVDKSRWQRGDTFICAVMHEALHNHYTQESLSHSPGK
# VL: EIVMTQSPASLSLSQEEKVTITCKASQSVSFAGTGLMHWYQQKPGQAPKLLIYRASNLEAGVPSRFSGSGSGTDFSFTISSLEPEDVAVYYCQQSREYPWTFGQGTKLEIK
# notes: VH/VL: the caninized 34D03 entries of the listing; also called mAb1 WT; mAb1 Wild-Type
# B3: mAb1, caninized anti-IL31 antibody 34D03, canine IgGB (65), N434H (antibody)
# heavy: B2 heavy with N440H
# VL: B2 VL
# notes: VH/VL: the caninized 34D03 entries of the listing; also called mAb1 N434H; mAb1 N434H Mutant
# Columns and labels:
# [1] = target: NGF (target protein of mAb2); assay: SPR (Biacore T200), target amine-coupled to CM5, antibody flowed, 15 C, 1:1 model
# [2] = target: canine FcRn complex (FcRn-α subunit and β-microglobulin) (canine); assay: SPR (Biacore), FcRn amine-coupled to CM5, IgG flowed, pH 7.2, 15 C
# [3] = target: canine FcRn complex (FcRn-α subunit and β-microglobulin) (canine); assay: SPR (Biacore), FcRn amine-coupled to CM5, IgG flowed, pH 6, 15 C
# [4] = target: NGF (target protein of mAb2); assay: cell-based or functional assay
# [5] = target: IL-31 (target protein of mAb1); assay: SPR (Biacore T200), target amine-coupled to CM5, antibody flowed, 15 C, 1:1 model
# [6] = target: T1, canine FcRn complex (FcRn-α subunit and β-microglobulin) (canine, UniProt A0A8I3PFR8 25-347, biotin on the BAP tag by BirA (Example 5 only)); assay: SPR (Biacore), biotinylated FcRn on SA chip, IgG flowed, pH 7.4, 15 C
# T1 sequence (A0A8I3PFR8 entry or part of it, one chain of several): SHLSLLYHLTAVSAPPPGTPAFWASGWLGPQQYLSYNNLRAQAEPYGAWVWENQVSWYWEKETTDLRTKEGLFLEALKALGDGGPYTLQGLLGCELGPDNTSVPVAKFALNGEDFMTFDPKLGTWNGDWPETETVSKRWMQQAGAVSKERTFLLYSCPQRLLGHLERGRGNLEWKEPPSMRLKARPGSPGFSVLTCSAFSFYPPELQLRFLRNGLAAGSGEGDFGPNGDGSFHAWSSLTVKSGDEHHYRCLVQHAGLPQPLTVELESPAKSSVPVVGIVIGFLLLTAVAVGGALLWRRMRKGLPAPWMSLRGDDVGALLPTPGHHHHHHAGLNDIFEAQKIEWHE
# [7] = target: T1, canine FcRn complex (FcRn-α subunit and …); assay: SPR (Biacore), FcRn amine-coupled to CM5, IgG flowed, pH 6, 15 C
# [8] = target: IL-31 (target protein of mAb1); assay: cell-based or functional assay
# [9] = target: T1, canine FcRn complex (FcRn-α subunit and …); assay: SPR (Biacore), biotinylated FcRn on SA chip, IgG flowed, pH 6, 15 C
# [10] = target: T1, canine FcRn complex (FcRn-α subunit and …); assay: SPR (Biacore), FcRn amine-coupled to CM5, IgG flowed, pH 7.2, 15 C
# [11] = target: T1, canine FcRn complex (FcRn-α subunit and …); assay: SPR (Biacore), biotinylated FcRn on SA chip, IgG flowed, pH 6, 15 C; remark: listed apart in the source
binder,measurement,setting,value
B1,Kd,[1],0.0555 nM
same,Kd,[2],1300 nM
same,Kd,[3],7.3 nM
same,IC50 (cell based potency assay),[4],20.9 nM
B2,Kd,[5],0.483 nM
same,Kd,[6],18700 nM
same,Kd,[7],15 to 24.4 nM
same,IC50 (cell based potency assay),[8],1.1 nM
same,Kd,[9],19.9 nM
B3,Kd,[5],0.373 nM
same,Kd,[10],5000 nM
same,Kd,[11],6.45 nM
same,Kd,[7],0.7 to 1.3 nM
same,IC50 (cell based potency assay),[8],0.99 nM
